Source: article PMC4457907

What was measured:
[1] = molecular target: T1, AtrA (Streptomyces coelicolor) (UniProt Q9KYF2); test: EMSA; conditions: SlbR EMSA: 0.5x TBE pH 8.0, 0.0375% glycerol, 5 mM MgCl2, 1 mM DTT, 7.5 ug salmon sperm DNA in 20 ul, 30 min room temperature; AtrA EMSA: as Uguru et al. 2005 …
T1 sequence: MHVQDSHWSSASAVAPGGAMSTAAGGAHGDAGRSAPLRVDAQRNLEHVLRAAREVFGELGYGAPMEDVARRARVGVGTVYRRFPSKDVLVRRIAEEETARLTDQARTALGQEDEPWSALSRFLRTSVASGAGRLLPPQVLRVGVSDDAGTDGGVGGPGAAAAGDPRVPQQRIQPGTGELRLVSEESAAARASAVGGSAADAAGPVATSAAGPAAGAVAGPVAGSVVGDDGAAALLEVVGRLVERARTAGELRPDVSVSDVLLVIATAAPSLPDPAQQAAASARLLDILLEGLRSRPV

[2] = test system: AtrA (Streptomyces coelicolor); test: EMSA; conditions: SlbR EMSA: 0.5x TBE pH 8.0, 0.0375% glycerol, 5 mM MgCl2, 1 mM DTT, 7.5 ug salmon sperm DNA in 20 ul, 30 min room temperature, AtrA EMSA: as Uguru et al. 2005 …

**Q.** With “AGCCGCGGGAACCAACGTCGCACGGCATGATCACGCAGGTCAGCGTGGGTGAGTGGGGGTTCGGAGGGGGGCACATCCGGGGCGGGCGCCATCCGTGCTCCGATCGGGGGGCGCTCCGTGCGGAACGTGCCCCTTCTGAATTGACCCCCGCTCAACTATGTTCTTTCCCACGGTGTGTAG (double strand) [SCO4119 promoter probe (179 bp)]” as the substance, how does the binding signal [1] read?
**A.** binds more weakly

**Q.** Which Kd [1] does the source give for “GTGAGAGCCGTGGGACACCGGTGGCGGTAACAGGAACCACCGGTTCCCTCGGGCGAGGGAAGTTTCCCGGACGGACCGTCGGTGAGCGGTGACCGACGGTTAGAGTCCGGAACTCCACGCGGGGGCGACTCCGCGAATGGCGCACCCCCCACCCGTGTTCGCCGCACGGGCCGCCACCTCGCGTTCCGGGAGTGATCCTTGGCCACGGCTGACACCGCATTCGCT (double strand) [ssgR promoter probe (224 bp)]” here?
**A.** 1200 nM

**Q.** For actII-ORF4 site 2 probe (100 bp), which Kd ([2]; cited from earlier work) is on record?
**A.** 150 nM

**Q.** With ssgR promoter probe (224 bp) as the substance, how does the Kd ([2]; apparent Kd', 5 nM probe) read?
**A.** 1200 nM
